Residue numbers refer to the chain shown, from its start.

Data set [1] concerns the target T1, EfCodY (Enterococcus faecalis, UniProt Q834K5 1-260).
T1 sequence: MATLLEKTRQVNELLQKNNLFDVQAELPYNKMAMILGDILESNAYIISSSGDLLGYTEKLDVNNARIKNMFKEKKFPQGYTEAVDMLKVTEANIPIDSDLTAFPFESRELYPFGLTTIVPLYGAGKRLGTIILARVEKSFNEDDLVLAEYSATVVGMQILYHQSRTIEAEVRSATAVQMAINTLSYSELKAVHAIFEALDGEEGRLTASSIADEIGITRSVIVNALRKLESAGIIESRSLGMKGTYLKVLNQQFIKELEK
The data set is described as follows: X-ray crystallography; Leu (bound in dimer 1 only); two dimers per duplex; BLI: 20 mM Tris-HCl pH 8, 150 mM NaCl, 2 mM MgCl2, 0.1% NP-40, 25 C; 2 mM GTP and/or 10 mM Ile/Leu/Val as stated. The settings on record: protein: recombinant; tags: His6 removed by TEV; N-terminal Gly-Ala remnant; chain copies: 4; blunt.

Data set [2] concerns the target T2, SaCodY (Staphylococcus aureus, UniProt Q2FHI3 1-257).
T2 sequence: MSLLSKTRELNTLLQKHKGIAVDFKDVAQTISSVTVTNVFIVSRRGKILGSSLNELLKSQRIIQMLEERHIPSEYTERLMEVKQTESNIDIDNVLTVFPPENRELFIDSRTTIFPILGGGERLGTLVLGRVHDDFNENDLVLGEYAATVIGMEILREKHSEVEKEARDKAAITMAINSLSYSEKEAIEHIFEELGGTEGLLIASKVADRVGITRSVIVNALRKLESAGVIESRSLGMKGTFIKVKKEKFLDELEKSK
The experiment in a line: X-ray crystallography; Ile + GTP; two dimers per duplex; BLI: 20 mM Tris-HCl pH 8, 150 mM NaCl, 2 mM MgCl2, 0.1% NP-40, 25 C; 2 mM GTP and/or 10 mM Ile/Leu/Val as stated. The settings on record: protein: recombinant; tags: His6 removed by TEV; N-terminal Gly-Ala remnant; chain copies: 4; blunt.

The target in data set [3] is T2, SaCodY. The data set is described as follows: BLI; Ile + GTP (implied); BLI: 20 mM Tris-HCl pH 8, 150 mM NaCl, 2 mM MgCl2, 0.1% NP-40, 25 C; 2 mM GTP and/or 10 mM Ile/Leu/Val as stated. The settings on record: protein: recombinant; tags: His6 removed by TEV; N-terminal Gly-Ala remnant; chain copies: 4; label: 5'-biotin on one strand; 3-nt overhang at biotinylated 5' end.

The target in data set [4] is T2, SaCodY. The data set is described as follows: BLI; 1 uM SaCodY; Ile + GTP (implied); BLI: 20 mM Tris-HCl pH 8, 150 mM NaCl, 2 mM MgCl2, 0.1% NP-40, 25 C; 2 mM GTP and/or 10 mM Ile/Leu/Val as stated. The settings on record: protein: recombinant; tags: His6 removed by TEV; N-terminal Gly-Ala remnant; chain copies: 4; label: 5'-biotin on one strand; 3-nt overhang at biotinylated 5' end.

The target of data set [5] is T1, EfCodY. The data set is described as follows: BLI; 10 mM Leu; BLI: 20 mM Tris-HCl pH 8, 150 mM NaCl, 2 mM MgCl2, 0.1% NP-40, 25 C; 2 mM GTP and/or 10 mM Ile/Leu/Val as stated. The settings on record: protein: recombinant; tags: His6 removed by TEV; N-terminal Gly-Ala remnant; chain copies: 4; label: 5'-biotin on one strand; 3-nt overhang at biotinylated 5' end.
Data set [6] has as its target T2, SaCodY. The experiment in a line: BLI; 1 uM protein; 10 mM Ile + 2 mM GTP; BLI: 20 mM Tris-HCl pH 8, 150 mM NaCl, 2 mM MgCl2, 0.1% NP-40, 25 C; 2 mM GTP and/or 10 mM Ile/Leu/Val as stated. The settings on record: protein: recombinant; tags: His6 removed by TEV; N-terminal Gly-Ala remnant; chain copies: 4; label: 5'-biotin on one strand; 3-nt overhang at biotinylated 5' end.

The target in data set [7] is T1, EfCodY. The experiment in a line: BLI; 1 uM protein; 10 mM Leu; BLI: 20 mM Tris-HCl pH 8, 150 mM NaCl, 2 mM MgCl2, 0.1% NP-40, 25 C; 2 mM GTP and/or 10 mM Ile/Leu/Val as stated. The settings on record: protein: recombinant; tags: His6 removed by TEV; N-terminal Gly-Ala remnant; chain copies: 4; label: 5'-biotin on one strand; 3-nt overhang at biotinylated 5' end.
Another data set has as its target EfCodY quadruple mutant (Enterococcus faecalis, UniProt Q834K5 1-260, Y186A;R238A;L240A;Y246A). The data set is described as follows: BLI; 8 uM protein, 10 mM Leu; BLI: 20 mM Tris-HCl pH 8, 150 mM NaCl, 2 mM MgCl2, 0.1% NP-40, 25 C; 2 mM GTP and/or 10 mM Ile/Leu/Val as stated. The settings on record: protein: recombinant; tags: His6 removed by TEV; N-terminal Gly-Ala remnant; chain copies: 2; label: 5'-biotin on one strand; 3-nt overhang at biotinylated 5' end.

B1: 30-bp crystallization DNA (dsDNA)
DNA 1: GATAATTTTCAGAATTTTCAGAAAATTTAG
DNA 2: CTAAATTTTCTGAAAATTCTGAAAATTATC
Take B1: the binding result in the data set with EfCodY [1] and with SaCodY [2] was “binds” each time.

B2: hutP1 single site (dsDNA)
DNA 1: AGTTAATAGTTATCAGAATTTTTAGG
DNA 2: CCTAAAAATTCTGATAACTATTAACT
With B2, in the data set with SaCodY [3], the equilibrium dissociation constant (Kd) was determined as 1230 nM.

B3: hutP2 single site (dsDNA)
DNA 1: AGTTCAGAATTTTTAGGAATTGAGTG
DNA 2: CACTCAATTCCTAAAAATTCTGAACT
Take B3: the binding result with SaCodY [4] is listed as “no binding”.

B4: hutP operator overlapping sites (dsDNA)
DNA 1: AGTTAATAGTTATCAGAATTTTTAGGAATTGAGTG
DNA 2: CACTCAATTCCTAAAAATTCTGATAACTATTAACT
Take B4: the binding result with EfCodY [5] was “binds”. In addition, the equilibrium dissociation constant (Kd) with SaCodY [3] came to 598 nM.

B5: consensus T>G (dsDNA)
DNA 1: CCGCCGGATAATTTGCAGCATTTGCAGCAAATTTAGCCG
DNA 2: CGGCTAAATTTGCTGCAAATGCTGCAAATTATCCGGCGG
With B5, the binding result in the data set with SaCodY [6] and with EfCodY [7] was “no binding” in each case.

B6: 24-nt sequence-optimized overlapping sites (consensus) (dsDNA)
DNA 1: B5 DNA 1 with G15T, C19A, G24T, C28A
DNA 2: B5 DNA 2 with G12T, C16A, G21T, C25A
B6: in the data set with EfCodY quadruple mutant, the binding result is “no binding”.

The values above are taken from paper PMC10415144, “Structural insights into CodY activation and DNA recognition”.
